Consider five molecules from patent US20220235344A1, “TRYPSIN VARIANTS WITH IMPROVED ENZYMATIC PROPERTIES” (BIOPHARMA TRANSLATIONSINSTITUT DESSAU FORSCHUNGS GMBH, priority 2018, published 2022).

One data set concerns the target T1, H-RHAK-OH.
T1 chain: RHAK

The test system of data set [1] is Bz-AAYRHAAG-OH (acyl donor) / H-RHAK-OH (acyl acceptor). The experiment in a line: Model transamidation reaction, Trypsiligase I and improved variants (Example 1). It counts as biochemical. As to conditions: for kcat, HL^app (mkat/mol) / kcat,AL^app, apparent turnover rate for aminolysis (head is formula image MATH:00001) / product yield (%): 250 μM Bz-AAYRHAAG-OH, 500 μM H-RHAK-OH, 0.1 mM ZnCl2, pH 7.8, 30° C.; for product yield (%): 5-10 μM trypsin variant; for kcat, AL^app/kcat, HL^app: 250 μM acyl donor, 500 μM acyl acceptor, 0.1 mM ZnCl2; for Km: constant acyl donor concentration, varying acyl acceptor concentrations. The protocol: Peptide and reaction analytics were performed using a Waters ACQUITY UPLC System equipped with an RP-C18 column (ACQUITY UPLC BEH 130, C18, 1.7 μm, 2.1×100 mm) at flow rates of 0.5 ml/min. The used mobile phases are: water with 0.05% TFA (A) and acetonitrile with 0.05% TFA (B), respectively. For analysis two methods were applied: Method I: linear gradient of 5-40% B in 5 min, detection at 254 nm.
Quantities of product and educt were calculated from the integrated peak areas.
The measurements of the product yield and the apparent tumover rates for aminolysis (kcat,AL^app) and hydrolysis (kcat,HL^app) were performed by a model transamidation reaction with the following conditions: 250 μM Bz-[…]-OH (acyl donor), 500 μM H-RHAK-OH (acyl acceptor), 5-10 μM trypsin variant, 100 mM HEPES/NaOH pH 7.8, 0.1 mM ZnCl2, 100 mM NaCl, 10 mM CaCl2, T=30° C. KM values for the acyl acceptor were determined by the measurements of apparent turnover rates for aminolysis at constant acyl donor concentration and varying acyl acceptor concentrations.

Data set [2] shares this test system. In words: Model transamidation reaction at low substrate concentration, Trypsiligase I, 2G10, 1C11, hybrid (Example 2). It counts as biochemical. As to conditions: for product yield (%): 15 μM Bz-AAYRHAAG-OH, 30 μM H-RHAK-OH, 0.5-2.1 μM trypsin variant, 0.1 mM ZnCl2, pH 7.8, 30° C.; for kcat, AL^app (mkat/mol) / kcat, AL^app/kcat, HL^app / kcat, HL^app (mkat/mol): 15 μM acyl donor, 30 μM acyl acceptor, 0.1 mM ZnCl2. How it is done: FIG. 1: Time course of product formation for a transamidation reaction catalyzed by Trypsiligase I as well as the improved variants 2G10, 1C11 and the hybrid variant. Reaction conditions: 15 μM Bz-[…]-OH (acyl donor), 30 μM H-RHAK-OH (acyl acceptor), 0.5-2.1 μM trypsin variant, 100 mM HEPES/NaOH pH 7.8, 0.1 mM ZnCl2, 100 mM NaCl, 10 mM CaCl2, T=30° C. UPLC analysis: Waters Acquity Ultra Performance LC, C18-column, gradient 5-40% acetonitrile, 4 min, detection at 254 nm.
The measurements of the product yield and the apparent tumover rates for aminolysis (kcat,AL^app) and hydrolysis (kcat,HL^app) were performed by a model transamidation reaction with the following conditions: 15 μM Bz-[…]-OH (acyl donor), 30 μM H-RHAK-OH (acyl acceptor), 0.5-2.1 μM trypsin variant, 100 mM HEPES/NaOH pH 7.8, 0.1 mM ZnCl2, 100 mM NaCl, 10 mM CaCl2, T=30° C.

Data set [3] relates to Bz PGGXaaXaaXaaHAG-OH / H-XaaXaaXaaAK(DNP)-OH (recognition sequences YRRH, YMKH, RMKH). In words: Time course of transamidation by A2C8_H39Y/H59Y/E60K/K189D and wild-type trypsin (FIG. 5). In kind it is biochemical. As to conditions: recognition sequences YRRH, YMKH and RMKH; 10 μM variant or 2.5 nM anionic rat trypsin II. How it is done: FIG. 5: Time course of the product formation for a transamidation reaction catalyzed by the variant A2C8_H39Y/H59Y/E60K/K189D as well as the wild-type Trypsin in correlation to various peptide substrates. Reaction conditions: 100 μM acyl donor (Bz PGGXaaXaaXaaHAG-OH), 200 μM acyl acceptor (H-XaaXaaXaaAK(DNP)-OH), 10 μM trypsin variant A2C8_H39Y/H59Y/E60K/K189D or 2.5 nM anionic rat trypsin II, 100 mM HEPES/NaOH pH 7.8, 0.1 mM ZnCl2, 100 mM NaCl, 10 mM CaCl2, T=30° C. UPLC analysis: Waters Acquity Ultra Performance LC, C18-column, gradient 5-60% acetonitrile, 5 min, detection at 360 nm.
The three substrates with the highest apparent turnover rate for the aminolysis reaction were then used for investigating the synthesis behavior of variant A2C8_H39Y/H59Y/E60K/K189D. In FIG. 5 the time course of product formation for a transamidation reaction catalyzed by variant A2C8_H39Y/H59Y/E60K/K189D with various peptide substrates is illustrated.

For another data set, the target named is T2, H-RAHAK(DNP)-OH.
T2 chain: RAHAK

Substitutions are numbered along the chain they refer to. Numbers in names are those of the source.

B1: Trypsiligase I (trypsin variant K60E/N143H/E151H/D189K) (protein)
chain: IVGGYTCQENSVPYQVSLNSGYHFCGGSLINDQWVVSAAHCYESRIQVRLGEHNINVLEGNEQFVNAAKIIKHPNFDRKTLNNDIMLIKLSSPVKLNARVATVALPSSCAPAGTQCLISGWGHTLSSGVNHPDLLQCLDAPLLPQADCEASYPGKITDNMVCVGFLEGGKKSCQGDSGGPVVCNGELQGIVSWGYGCALPDNPGVYTKVCNYVDWIQDTIAAN
Consider B1, for which, in the data set with H-RHAK-OH, the KM, acyl acceptor (µM); transamidation with Bz-AAYRHAAG-OH as acyl donor, 0.1 mM ZnCl2 was 222 µM.

B2: Trypsiligase I variant 1C11 (protein)
chain: B1 chain with R78V, L81F, S192G, G196S, A198G
For orientation: Km means the concentration of substrate that gives half-maximal velocity. With B2, in the data set with H-RHAK-OH, the KM, acyl acceptor (µM); transamidation with Bz-AAYRHAAG-OH as acyl donor, 0.1 mM ZnCl2 is greater than 5000 µM and the “enzyme kinetic analyses (worded result)” value is on record as “An improved affinity for the nucleophile could not be shown for this variant”. Besides, in data set [1], the “affinity for the nucleophilic substrate compared to Trypsiligase I” value is “An improved affinity for the nucleophile could not be shown”; the “kcat, HL^app (mkat/mol)” value was found to be 0.3 mkat/mol; the “kcat,AL^app, apparent turnover rate for aminolysis (head is formula image MATH:00001)” value is given as 16.0; the “product yield (%)” value worked out at 60.9%. In data set [1], the “kcat, AL^app/kcat, HL^app” value is 57.0 and the Km was greater than 5000 µM. Also, in data set [1] (versus Trypsiligase I), the “aminolysis activity lowered by factor” value stood at 3 and the “increase for the ratio of aminolysis to hydrolysis activity (factor)” value was 13. For the same molecule, in data set [2], the “product yield (%)” value is 53.9%; the “kcat, AL^app (mkat/mol)” value was determined as 6.24 mkat/mol; the “kcat, AL^app/kcat, HL^app” value is 6.4; the “kcat, HL^app (mkat/mol)” value was 0.97 mkat/mol.

B3: wild-type trypsin: mature anionic rat trypsin II from Rattus norvegicus, SEQ ID NO: 1 (protein)
chain: B1 chain with E43K, H123N, H131E, K171D
modifications: Rat anionic trypsin II
For the molecule B3, in data set [3], the “product formation” value is recorded as “Nearly no product formation”.

B4: Trypsiligase I variant 2G10 (protein)
chain: B1 chain with H23P, A38S, K79D, L81F, Q174E
In the case of B4, in the data set with H-RHAK-OH, the KM, acyl acceptor (µM); transamidation with Bz-AAYRHAAG-OH as acyl donor, 0.1 mM ZnCl2 stood at 23 µM and the “enzyme kinetic analyses (worded result)” value is listed as “shows a strongly increased affinity for the nucleophilic RH substrate compared to the initial enzyme Trypsiligase I”. In addition, in data set [1], the “affinity for the nucleophilic substrate compared to Trypsiligase I” value is “strongly increased affinity for the nucleophilic RH substrate”; the “kcat, HL^app (mkat/mol)” value came out at 2.5 mkat/mol; the “kcat,AL^app, apparent turnover rate for aminolysis (head is formula image MATH:00001)” value is recorded as 65.1; the “product yield (%)” value was 59.3%. Further, in data set [1], the “kcat, AL^app/kcat, HL^app” value is 26.0 and the Km was 23 µM. The “increase for the ratio of aminolysis to hydrolysis activity (factor)” value in data set [1] (versus Trypsiligase I) was found to be 6. In data set [2], the “product yield (%)” value worked out at 39.6%; the “kcat, AL^app (mkat/mol)” value is reported as 16.39 mkat/mol; the “kcat, AL^app/kcat, HL^app” value turned out to be 3.3; the “kcat, HL^app (mkat/mol)” value was 5.03 mkat/mol.

B5: Trypsiligase II variant A2C8 (protein)
chain: IVGGYTCQENSVPYQVSLNSGHFFCGGSLINDQWVVSAAHCHESRIQVRLGEHNINVLEGNEQFVNAAKIIKHPNFDEDTFNNDIMLIKLSSPVKLNARVATVALPSSCAPAGTQCLISGWGETLSSGVNYPDLLQCLDAPLLPQADCEASYPGKITDNMVCVGFLEGGKKVCAGDSGGPVVCNGELQGIVGWGYQCTLPDNPGVYTKVCNYVDWIQDTIAAN
B5: in the data set with H-RAHAK(DNP)-OH, the KM, acyl acceptor (µM); zinc ions (100 µM): no; transamidation with 250 µM Bz-PGGYRAHAG-OH as acyl donor is 17.6 µM; the “fold improvement of KM of the nucleophilic peptide against Trypsiligase II in the absence of zinc ions” value was “by a factor of 8 and 92 in the presence or absence of zinc ions, respectively”; the “fold improvement of KM of the nucleophilic peptide against Trypsiligase II in the presence of zinc ions” value was “by a factor of 8 and 92 in the presence or absence of zinc ions, respectively”.
